Experimental data reported in US20150266962A1 (Pfizer, published 2015).

Biological target: T1, recombinant human IL-13 receptor alpha 2 (hIL-13-Rα2) (human, UniProt Q14627 27-343)
T1 construct: Recombinant soluble antigen coated on ELISA plates or used in Biacore; also called rec hIL-13Rα2; rhIL-13Rα2
T1 sequence (looked up): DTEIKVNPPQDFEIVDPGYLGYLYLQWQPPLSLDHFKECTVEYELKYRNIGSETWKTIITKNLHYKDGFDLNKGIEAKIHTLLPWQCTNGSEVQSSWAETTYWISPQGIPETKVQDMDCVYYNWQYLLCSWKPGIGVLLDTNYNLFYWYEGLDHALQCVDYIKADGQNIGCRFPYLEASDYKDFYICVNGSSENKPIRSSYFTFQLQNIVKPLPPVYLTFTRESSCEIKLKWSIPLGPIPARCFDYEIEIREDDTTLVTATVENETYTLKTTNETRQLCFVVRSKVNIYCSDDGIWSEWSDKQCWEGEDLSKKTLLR
Experiment: direct ELISA on coated recombinant hIL-13-Rα2
Procedure: Humanized hu08 binding to recombinant hIL-13-Rα2 was evaluated by a standard direct ELISA. Recombinant hIL-13-Rα2 was coated onto a 96-well plate. Serially diluted chimeric antibodies or humanized antibodies in combinations of heavy and light chains of versions 1.0 and 1.1 e.g. hu08 v1.0 HC/1.0 LC, hu08 v1.0 HC/v1.1 LC, hu08 v1.1 HC/v1.0 LC, and hu08 v1.1 HC/v1.1 LC, were added to the plate and incubated at room temperature for 1-2 hours. The binding was detected by HRP conjugated goat anti-human Ig Kappa.

EC50: 0.152 nM
B1: chimeric antibody ch08 (antibody, human IgG1, V domains shown)
VH: EVQLVESGGDLVRPGGSLQLSCAASGFTFSRNGMSWVRQTPDRRLEWVATVSSGGSYIYYADSVKGRFTISRDNARNTLYLQMSSLKSEDTAMYYCARQGTTALATRFFDVWGAGTTVTVSS
VL: DIVMTQSHKFISTSVGDRVSITCKASQDVGTAVAWYQQIPGQSPKLLIYSASYRSTGIPDRFTGSGSGTDFSFIISSVQAEDLALYYCQHHYSAPWTFGGGTTLDIK
notes: also called ch08Hc + Lc; chimeric antibody 08
